As a reminder, the Kd is the equilibrium constant for the complex coming apart. A lower Kd goes with tighter binding.

In this test the target is T1, FcγRIIIaV (human, UniProt P08637 17-208).
T1 construct: extracellular domain
Briefly: SPR (Biacore), antibody captured, FcγR as analyte, 1:1 Langmuir fit. (Surface plasmon resonance follows binding to a sensor surface in real time, without labels.)

T1 sequence (P08637 other isoform, or with tags, fused parts or gaps): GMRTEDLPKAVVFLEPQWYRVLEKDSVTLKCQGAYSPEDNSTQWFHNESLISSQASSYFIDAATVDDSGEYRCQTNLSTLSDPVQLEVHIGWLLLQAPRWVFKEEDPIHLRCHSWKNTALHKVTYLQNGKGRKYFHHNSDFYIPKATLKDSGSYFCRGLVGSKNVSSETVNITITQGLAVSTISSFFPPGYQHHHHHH

B1: H240-Kn125/H240-Hl076/L73-k0 (antibody, human IgG1, kappa)
heavy 1: QDQLVQSGAEVKKPGASVKVSCKASGFNIKDTYIQWVRQAPGQGLEWMGRIDPLRKQTKYREKFEGRVTITADTSTNTAYMELSSLRSEDTAVYYCVRSGREFDYWGQGTLVTVSSASTKGPSVFPLAPSSKSTSGGTAALGCLVKDYFPEPVTVSWNSGALTSGVHTFPAVLQSSGLYSLSSVVTVPSSSLGTQTYICNVNHKPSNTKVDKKVEPKSCDKTHTCPPCPAPELLGGPSVFLFPPKPKDTLMISRTPEVTCVVVDVSHEEPEVKFNWYVDGVEVHNAKTKPREEQYNSTYRVVSVLTVLHQDWLNGKEYKCKVSNDALPMPIEETISKAKGQPREPQVYTLPPSRCELTKNQVSLSCAVKGFYPSDIAVEWESNGQPENNYKTTPPVLDSDGSFFLVSKLTVDKSRWQQGNVFSCSVMHEALHNHYTQKSLSLSP
heavy 2: QDQLVQSGAEVKKPGASVKVSCKASGFNIKDTYIQWVRQAPGQGLEWMGRIDPLRKQTKYREKFEGRVTITADTSTNTAYMELSSLRSEDTAVYYCVRSGREFDYWGQGTLVTVSSASTKGPSVFPLAPSSKSTSGGTAALGCLVKDYFPEPVTVSWNSGALTSGVHTFPAVLQSSGLYSLSSVVTVPSSSLGTQTYICNVNHKPSNTKVDKKVEPKSCDKTHTCPPCPAPEYQWGPMVFLFPPKPKDTLMISRTPEVTCVVVDVSDEEPEVKFNWYVDGVEVHNAKTKPREEQYNATYRVVSVLTVLHQDWLNGKEYKCKVSNKALPAPIEKTISKAKGQPREPQVCTLPPSRDELTKNQVSLWCLVKGFYPSDIAVEWESNGQPENNYKTTPPVLDSDGSFFLYSKLTVDKSRWQQGNVFSCSVMHEALHNHYTQKSLSLSP
light: DIQMTQSPSSLSASVGDRVTITCRASQDIHKYIAWYQQKPGQAPRLLIQYTSTLQPGVPSRFSGSGSGTDYTFTISSLQPEDIATYYCLQYEQLRTFGGGTKVEIKRTVAAPSVFIFPPSDEQLKSGTASVVCLLNNFYPREAKVQWKVDNALQSGNSQESVTEQDSKDSTYSLSSTLTLSKADYEKHKVYACEVTHQGLSSPVTKSFNRGEC
notes: heterodimerized anti-EREG antibody, parent of the loop-extended forms; also called HI076/Kn125; parent peptide
B1 came in with a Kd of 0.47 nM. This counts as sub-nanomolar.

B2: HI076-L2-GS12 (antibody, human IgG1, kappa)
heavy 1: QDQLVQSGAEVKKPGASVKVSCKASGFNIKDTYIQWVRQAPGQGLEWMGRIDPLRKQTKYREKFEGRVTITADTSTNTAYMELSSLRSEDTAVYYCVRSGREFDYWGQGTLVTVSSASTKGPSVFPLAPSSKSTSGGTAALGCLVKDYFPEPVTVSWNSGALTSGVHTFPAVLQSSGLYSLSSVVTVPSSSLGTQTYICNVNHKPSNTKVDKKVEPKSCDKTHTCPPCPAPELLGGPSVFLFPPKPKDTLMISRTPEVTCVVVDVGGGSGGGSGGGSVKFNWYVDGVEVHNAKTKPREEQYNSTYRVVSVLTVLHQDWLNGKEYKCKVSNDALPMPIEETISKAKGQPREPQVYTLPPSRCELTKNQVSLSCAVKGFYPSDIAVEWESNGQPENNYKTTPPVLDSDGSFFLVSKLTVDKSRWQQGNVFSCSVMHEALHNHYTQKSLSLSP
heavy 2: QDQLVQSGAEVKKPGASVKVSCKASGFNIKDTYIQWVRQAPGQGLEWMGRIDPLRKQTKYREKFEGRVTITADTSTNTAYMELSSLRSEDTAVYYCVRSGREFDYWGQGTLVTVSSASTKGPSVFPLAPSSKSTSGGTAALGCLVKDYFPEPVTVSWNSGALTSGVHTFPAVLQSSGLYSLSSVVTVPSSSLGTQTYICNVNHKPSNTKVDKKVEPKSCDKTHTCPPCPAPEYQWGPMVFLFPPKPKDTLMISRTPEVTCVVVDVSDEEPEVKFNWYVDGVEVHNAKTKPREEQYNATYRVVSVLTVLHQDWLNGKEYKCKVSNKALPAPIEKTISKAKGQPREPQVCTLPPSRDELTKNQVSLWCLVKGFYPSDIAVEWESNGQPENNYKTTPPVLDSDGSFFLYSKLTVDKSRWQQGNVFSCSVMHEALHNHYTQKSLSLSP
light: DIQMTQSPSSLSASVGDRVTITCRASQDIHKYIAWYQQKPGQAPRLLIQYTSTLQPGVPSRFSGSGSGTDYTFTISSLQPEDIATYYCLQYEQLRTFGGGTKVEIKRTVAAPSVFIFPPSDEQLKSGTASVVCLLNNFYPREAKVQWKVDNALQSGNSQESVTEQDSKDSTYSLSSTLTLSKADYEKHKVYACEVTHQGLSSPVTKSFNRGEC
notes: heterodimerized anti-EREG antibody: altered H240-Hl076 chain (Gly/Ser peptide in loop) with H240-Kn125 and L73-k0; also called Hl076-L2-GS12_2
Take B2: the Kd is 2.8 nM. Against the preceding molecule, the Kd is about 6-fold higher.

B3: Kn125-L4-GS5 (antibody, human IgG1, kappa)
heavy 1: QDQLVQSGAEVKKPGASVKVSCKASGFNIKDTYIQWVRQAPGQGLEWMGRIDPLRKQTKYREKFEGRVTITADTSTNTAYMELSSLRSEDTAVYYCVRSGREFDYWGQGTLVTVSSASTKGPSVFPLAPSSKSTSGGTAALGCLVKDYFPEPVTVSWNSGALTSGVHTFPAVLQSSGLYSLSSVVTVPSSSLGTQTYICNVNHKPSNTKVDKKVEPKSCDKTHTCPPCPAPELLGGPSVFLFPPKPKDTLMISRTPEVTCVVVDVSHEEPEVKFNWYVDGVEVHNAKTKPREEQYNSTYRVVSVLTVLHQDWLNGKEYKCKVSNDALPMPIEETISKAKGQPREPQVYTLPPSRCELTKNQVSLSCAVKGFYPSDIAVEWESNGQPENNYKTTPPVLDSDGSFFLVSKLTVDKSRWQQGNVFSCSVMHEALHNHYTQKSLSLSP
heavy 2: QDQLVQSGAEVKKPGASVKVSCKASGFNIKDTYIQWVRQAPGQGLEWMGRIDPLRKQTKYREKFEGRVTITADTSTNTAYMELSSLRSEDTAVYYCVRSGREFDYWGQGTLVTVSSASTKGPSVFPLAPSSKSTSGGTAALGCLVKDYFPEPVTVSWNSGALTSGVHTFPAVLQSSGLYSLSSVVTVPSSSLGTQTYICNVNHKPSNTKVDKKVEPKSCDKTHTCPPCPAPEYQWGPMVFLFPPKPKDTLMISRTPEVTCVVVDVSDEEPEVKFNWYVDGVEVHNAKTKPREEQYNATYRVVSVLTVLHQDWLNGKEYKCKVSNGSGGSPIEKTISKAKGQPREPQVCTLPPSRDELTKNQVSLWCLVKGFYPSDIAVEWESNGQPENNYKTTPPVLDSDGSFFLYSKLTVDKSRWQQGNVFSCSVMHEALHNHYTQKSLSLSP
light: DIQMTQSPSSLSASVGDRVTITCRASQDIHKYIAWYQQKPGQAPRLLIQYTSTLQPGVPSRFSGSGSGTDYTFTISSLQPEDIATYYCLQYEQLRTFGGGTKVEIKRTVAAPSVFIFPPSDEQLKSGTASVVCLLNNFYPREAKVQWKVDNALQSGNSQESVTEQDSKDSTYSLSSTLTLSKADYEKHKVYACEVTHQGLSSPVTKSFNRGEC
notes: heterodimerized anti-EREG antibody: altered H240-Kn125 chain (Gly/Ser peptide in loop) with H240-Hl076 and L73-k0
The molecule B3 displayed a Kd of 1.8 nM.

B4: HI076-L2-6 (antibody, human IgG1, kappa)
heavy 1: QDQLVQSGAEVKKPGASVKVSCKASGFNIKDTYIQWVRQAPGQGLEWMGRIDPLRKQTKYREKFEGRVTITADTSTNTAYMELSSLRSEDTAVYYCVRSGREFDYWGQGTLVTVSSASTKGPSVFPLAPSSKSTSGGTAALGCLVKDYFPEPVTVSWNSGALTSGVHTFPAVLQSSGLYSLSSVVTVPSSSLGTQTYICNVNHKPSNTKVDKKVEPKSCDKTHTCPPCPAPELLGGPSVFLFPPKPKDTLMISRTPEVTCVVVDVSHGGSGGSEEPEVKFNWYVDGVEVHNAKTKPREEQYNSTYRVVSVLTVLHQDWLNGKEYKCKVSNDALPMPIEETISKAKGQPREPQVYTLPPSRCELTKNQVSLSCAVKGFYPSDIAVEWESNGQPENNYKTTPPVLDSDGSFFLVSKLTVDKSRWQQGNVFSCSVMHEALHNHYTQKSLSLSP
heavy 2: QDQLVQSGAEVKKPGASVKVSCKASGFNIKDTYIQWVRQAPGQGLEWMGRIDPLRKQTKYREKFEGRVTITADTSTNTAYMELSSLRSEDTAVYYCVRSGREFDYWGQGTLVTVSSASTKGPSVFPLAPSSKSTSGGTAALGCLVKDYFPEPVTVSWNSGALTSGVHTFPAVLQSSGLYSLSSVVTVPSSSLGTQTYICNVNHKPSNTKVDKKVEPKSCDKTHTCPPCPAPEYQWGPMVFLFPPKPKDTLMISRTPEVTCVVVDVSDEEPEVKFNWYVDGVEVHNAKTKPREEQYNATYRVVSVLTVLHQDWLNGKEYKCKVSNKALPAPIEKTISKAKGQPREPQVCTLPPSRDELTKNQVSLWCLVKGFYPSDIAVEWESNGQPENNYKTTPPVLDSDGSFFLYSKLTVDKSRWQQGNVFSCSVMHEALHNHYTQKSLSLSP
light: DIQMTQSPSSLSASVGDRVTITCRASQDIHKYIAWYQQKPGQAPRLLIQYTSTLQPGVPSRFSGSGSGTDYTFTISSLQPEDIATYYCLQYEQLRTFGGGTKVEIKRTVAAPSVFIFPPSDEQLKSGTASVVCLLNNFYPREAKVQWKVDNALQSGNSQESVTEQDSKDSTYSLSSTLTLSKADYEKHKVYACEVTHQGLSSPVTKSFNRGEC
notes: heterodimerized anti-EREG antibody: altered H240-Hl076 chain (Gly/Ser peptide in loop) with H240-Kn125 and L73-k0; also called Hl076-L2-6
The molecule B4 displayed a Kd of 1.9 nM.

B5: HI076-L2-GS6 (antibody, human IgG1, kappa)
heavy 1: QDQLVQSGAEVKKPGASVKVSCKASGFNIKDTYIQWVRQAPGQGLEWMGRIDPLRKQTKYREKFEGRVTITADTSTNTAYMELSSLRSEDTAVYYCVRSGREFDYWGQGTLVTVSSASTKGPSVFPLAPSSKSTSGGTAALGCLVKDYFPEPVTVSWNSGALTSGVHTFPAVLQSSGLYSLSSVVTVPSSSLGTQTYICNVNHKPSNTKVDKKVEPKSCDKTHTCPPCPAPELLGGPSVFLFPPKPKDTLMISRTPEVTCVVVDVGGSGGSVKFNWYVDGVEVHNAKTKPREEQYNSTYRVVSVLTVLHQDWLNGKEYKCKVSNDALPMPIEETISKAKGQPREPQVYTLPPSRCELTKNQVSLSCAVKGFYPSDIAVEWESNGQPENNYKTTPPVLDSDGSFFLVSKLTVDKSRWQQGNVFSCSVMHEALHNHYTQKSLSLSP
heavy 2: QDQLVQSGAEVKKPGASVKVSCKASGFNIKDTYIQWVRQAPGQGLEWMGRIDPLRKQTKYREKFEGRVTITADTSTNTAYMELSSLRSEDTAVYYCVRSGREFDYWGQGTLVTVSSASTKGPSVFPLAPSSKSTSGGTAALGCLVKDYFPEPVTVSWNSGALTSGVHTFPAVLQSSGLYSLSSVVTVPSSSLGTQTYICNVNHKPSNTKVDKKVEPKSCDKTHTCPPCPAPEYQWGPMVFLFPPKPKDTLMISRTPEVTCVVVDVSDEEPEVKFNWYVDGVEVHNAKTKPREEQYNATYRVVSVLTVLHQDWLNGKEYKCKVSNKALPAPIEKTISKAKGQPREPQVCTLPPSRDELTKNQVSLWCLVKGFYPSDIAVEWESNGQPENNYKTTPPVLDSDGSFFLYSKLTVDKSRWQQGNVFSCSVMHEALHNHYTQKSLSLSP
light: DIQMTQSPSSLSASVGDRVTITCRASQDIHKYIAWYQQKPGQAPRLLIQYTSTLQPGVPSRFSGSGSGTDYTFTISSLQPEDIATYYCLQYEQLRTFGGGTKVEIKRTVAAPSVFIFPPSDEQLKSGTASVVCLLNNFYPREAKVQWKVDNALQSGNSQESVTEQDSKDSTYSLSSTLTLSKADYEKHKVYACEVTHQGLSSPVTKSFNRGEC
notes: heterodimerized anti-EREG antibody: altered H240-Hl076 chain (Gly/Ser peptide in loop) with H240-Kn125 and L73-k0; also called Hl076-L2-GS6_2
Turning to B5, the equilibrium dissociation constant (Kd) was 2.8 nM.

Source of the values: patent publication US20260167699A1 (Chugai, published 2026).
